Source: IntAct's records for PubMed 20030366

What was measured:
apoe_human APOE = apoe_human APOE (UniProt P02649)
amrp_human LRPAP1 [1] = target: amrp_human LRPAP1 (UniProt P30533)
amrp_human LRPAP1 [2] = target: amrp_human LRPAP1 (UniProt P30533); remark: listed apart in the source

Sequence of amrp_human LRPAP1 (P30533 whole entry): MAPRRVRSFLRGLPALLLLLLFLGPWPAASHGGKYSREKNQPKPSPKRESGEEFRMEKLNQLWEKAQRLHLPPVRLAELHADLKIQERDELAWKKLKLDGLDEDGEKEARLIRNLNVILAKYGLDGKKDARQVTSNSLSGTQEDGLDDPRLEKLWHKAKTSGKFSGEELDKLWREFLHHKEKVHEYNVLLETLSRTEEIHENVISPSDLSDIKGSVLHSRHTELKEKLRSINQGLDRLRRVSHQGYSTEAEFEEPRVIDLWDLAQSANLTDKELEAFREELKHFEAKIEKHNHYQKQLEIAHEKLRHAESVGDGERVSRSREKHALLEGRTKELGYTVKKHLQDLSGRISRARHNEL
Sequence of apoe_human APOE (P02649 whole entry): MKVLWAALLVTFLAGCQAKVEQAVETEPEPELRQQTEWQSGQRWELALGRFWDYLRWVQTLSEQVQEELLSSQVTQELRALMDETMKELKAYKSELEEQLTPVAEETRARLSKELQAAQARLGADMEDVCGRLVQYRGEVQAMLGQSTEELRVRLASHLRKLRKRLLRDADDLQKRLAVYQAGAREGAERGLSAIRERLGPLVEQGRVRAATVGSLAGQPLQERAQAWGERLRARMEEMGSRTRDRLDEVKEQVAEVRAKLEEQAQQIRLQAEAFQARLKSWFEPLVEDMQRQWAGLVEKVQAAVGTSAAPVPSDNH

Substance | effect of a mutation on the interaction (apoe_human APOE) | effect of a mutation on the interaction (amrp_human LRPAP1 [1]) | effect of a mutation on the interaction (amrp_human LRPAP1 [2])
Prolow-density lipoprotein receptor-related protein 1 (Homo sapiens), Q07954 D2797A | decreasing interaction strength | decreasing interaction strength | –
Prolow-density lipoprotein receptor-related protein 1 (Homo sapiens), Q07954 D2797A;D2840A | – | – | decreasing interaction strength
